{"source": "paper PMC5408392", "experiment_in_all_cases": "SEC-MALS; SEC followed by multiangle light scattering of the SEC-purified Δ123 species", "key": {"[1]": {"molecular_target": "Δ123 E2 high-molecular-weight form 1 (HMW1, G1a strain H77c) (hepatitis C virus genotype 1a, strain H77c) (UniProt P27958)"}, "[2]": {"molecular_target": "Δ123 E2 dimer (G1a strain H77c) (hepatitis C virus genotype 1a, strain H77c) (UniProt P27958)"}, "[3]": {"molecular_target": "Δ123 E2 high-molecular-weight form 2 (HMW2, G1a strain H77c) (hepatitis C virus genotype 1a, strain H77c) (UniProt P27958)"}}}
{"substance": "Δ123 E2 high-molecular-weight form 1 (HMW1, G1a strain H77c) (from UniProt P27958 384-661) (domain or fragment)", "values": [{"measurement": "stoichiometry N", "setting": "[1]", "value": 51.6}]}
{"substance": "Δ123 E2 dimer (G1a strain H77c) (from UniProt P27958 384-661) (domain or fragment)", "values": [{"measurement": "stoichiometry N", "setting": "[2]", "value": 2.1}]}
{"substance": "Δ123 E2 high-molecular-weight form 2 (HMW2, G1a strain H77c) (from UniProt P27958 384-661) (domain or fragment)", "values": [{"measurement": "stoichiometry N", "setting": "[3]", "value": 5.1}]}
